Values quoted from earlier work in paper PMC6557524.

Target: CCR2 (UniProt P41597)
UniProt P41597, sequence (P41597 whole entry): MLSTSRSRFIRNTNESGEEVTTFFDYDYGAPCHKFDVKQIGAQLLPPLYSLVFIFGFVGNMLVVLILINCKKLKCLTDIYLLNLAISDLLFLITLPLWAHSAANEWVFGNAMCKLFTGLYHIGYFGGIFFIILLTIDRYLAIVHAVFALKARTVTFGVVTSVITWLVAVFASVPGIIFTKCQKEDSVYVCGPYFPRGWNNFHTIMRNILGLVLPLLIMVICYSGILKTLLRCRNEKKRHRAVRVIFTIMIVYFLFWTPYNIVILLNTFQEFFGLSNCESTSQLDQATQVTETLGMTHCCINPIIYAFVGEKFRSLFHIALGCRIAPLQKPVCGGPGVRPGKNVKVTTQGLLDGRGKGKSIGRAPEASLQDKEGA

CCL2 (from UniProt P13500)
Kd: 2.1 nM
